The text below walks through data of the Immune Epitope Database (IEDB).

Assay [1] concerns the target HLA-B*07:02. In words: IEDB peptide-MHC binding, purified MHC/competitive/radioactivity; ≥ and ≤ were set here for values at or beyond the usual limits of such assays.
For assay [2], the target named is HLA-A*02:01. Put plainly: IEDB peptide-MHC binding, purified MHC/competitive/radioactivity; filed as Kd, often an IC50 or EC50 that approximates it; ≥ and ≤ were set here for values at or beyond the usual limits of such assays. The following applies: source organism: Human immunodeficiency virus 1.
For assay [3], the target named is HLA-A*11:01. Put plainly: IEDB peptide-MHC binding, purified MHC/direct/fluorescence; filed as Kd, often an IC50 or EC50 that approximates it; ≥ and ≤ were set here for values at or beyond the usual limits of such assays. The following applies: source organism: SARS-CoV1.
Assay [4] deals with HLA-B*07:02. The assay is described as above.
Assay [5] deals with HLA-A*31:01. Described as above. The following applies: source organism: SARS-CoV1.
For assay [6], the target named is HLA-B*15:01. The description is as above. As to conditions: source organism: SARS-CoV1.
Assay [7] deals with HLA-B*08:01. Described as above. The following applies: source organism: SARS-CoV1.
Assay [8] addresses HLA-C*08:02. The assay is described as above. The following applies: source organism: SARS-CoV1.
The target in assay [9] is HLA-C*14:02. The description is as above. The following applies: source organism: SARS-CoV1.
The target of assay [10] is HLA-C*12:03. The assay is described as above. As to conditions: source organism: SARS-CoV1.
Assay [11] deals with HLA-B*27:05. The description is as above. The following applies: source organism: SARS-CoV1.
For assay [12], the target named is HLA-B*40:01. The assay is described as above. The following applies: source organism: SARS-CoV1.
Assay [13] concerns the target HLA-A*01:01. The assay is described as above. As to conditions: source organism: SARS-CoV1.
Assay [14] addresses HLA-C*15:02. The assay is described as above. The following applies: source organism: SARS-CoV1.
Assay [15] has as its target HLA-C*03:03. The assay is described as above. The following applies: source organism: SARS-CoV1.
The target of assay [16] is HLA-A*03:01. The assay is described as above.
The target of assay [17] is HLA-B*58:01. Described as above. The following applies: source organism: SARS-CoV1.
The target in assay [18] is HLA-B*46:01. Put plainly: IEDB peptide-MHC binding, purified MHC/competitive/fluorescence; filed as Kd, often an IC50 or EC50 that approximates it; ≥ and ≤ were set here for values at or beyond the usual limits of such assays.
The target in assay [19] is HLA-A*24:03. In words: IEDB peptide-MHC binding, purified MHC/direct/fluorescence; filed as Kd, often an IC50 or EC50 that approximates it; ≥ and ≤ were set here for values at or beyond the usual limits of such assays. The following applies: source organism: Choclo virus.
Assay [20] addresses HLA-A*02:11. Described as above. As to conditions: source organism: Choclo virus.
Assay [21] addresses HLA-A*02:16. Described as above. As to conditions: source organism: Choclo virus.
The target of assay [22] is HLA-A*68:02. Described as above. As to conditions: source organism: Choclo virus.
The target in assay [23] is HLA-A*02:03. Described as above. As to conditions: source organism: Choclo virus.
Assay [24] concerns the target HLA-A*02:12. The assay is described as above. The following applies: source organism: Choclo virus.
Assay [25] concerns the target HLA-A*02:19. Described as above. As to conditions: source organism: Choclo virus.
Assay [26] deals with HLA-A*23:01. The description is as above. The following applies: source organism: Choclo virus.
Assay [27] has as its target HLA-A*69:01. Put plainly: IEDB peptide-MHC binding, purified MHC/competitive/fluorescence; filed as Kd, often an IC50 or EC50 that approximates it; ≥ and ≤ were set here for values at or beyond the usual limits of such assays. As to conditions: source organism: Choclo virus.
Assay [28] has as its target HLA-B*57:01. The assay is described as above. The following applies: source organism: Choclo virus.
The target in assay [29] is HLA-B*15:42. Described as above.
The target of assay [30] is HLA-B*15:17. The description is as above. The following applies: source organism: Choclo virus.
The target of assay [31] is HLA-B*27:03. Described as above. As to conditions: source organism: Choclo virus.
In assay [32] the target is HLA-B*15:01. The assay is described as above. The following applies: source organism: Choclo virus.
Assay [33] has as its target HLA-B*83:01. Described as above.
The target of assay [34] is HLA-A*26:01. Described as above. The following applies: source organism: Choclo virus.
Assay [35] deals with HLA-A*68:23. The assay is described as above.
Assay [36] concerns the target HLA-B*35:01. Described as above. As to conditions: source organism: Choclo virus.
The target in assay [37] is HLA-B*39:01. Described as above. The following applies: source organism: Choclo virus.
Assay [38] concerns the target HLA-B*45:06. The description is as above.
The target in assay [39] is HLA-B*51:01. The description is as above. The following applies: source organism: Choclo virus.
Assay [40] has as its target HLA-A*02:01. The assay is described as above. As to conditions: source organism: Choclo virus.
The target of assay [41] is HLA-C*06:02. In words: IEDB peptide-MHC binding, purified MHC/direct/fluorescence; filed as Kd, often an IC50 or EC50 that approximates it; ≥ and ≤ were set here for values at or beyond the usual limits of such assays. The following applies: source organism: Homo sapiens.
In assay [42] the target is HLA-C*05:01. The assay is described as above. As to conditions: source organism: Homo sapiens.
For assay [43], the target named is HLA-B*73:01. The description is as above. As to conditions: source organism: Mus musculus.
Assay [44] addresses HLA-C*07:02. Described as above. The following applies: source organism: Homo sapiens.
The target in assay [45] is HLA-A*32:15. Put plainly: IEDB peptide-MHC binding, purified MHC/competitive/fluorescence; filed as Kd, often an IC50 or EC50 that approximates it; ≥ and ≤ were set here for values at or beyond the usual limits of such assays. As to conditions: source organism: Homo sapiens.
Assay [46] has as its target HLA-A*24:02. In words: IEDB peptide-MHC binding, purified MHC/competitive/radioactivity; ≥ and ≤ were set here for values at or beyond the usual limits of such assays. The following applies: source organism: Homo sapiens.

pIC50, pKd: −log10 of the molar value.

Take FATCGIFAL: the pIC50 (as a rule, the IC50 on a negative log10 scale, so that one unit is a factor of ten) in assay [1] (source organism: Lymphocytic choriomeningitis virus (strain Armstrong) (clone 53b)) is 5.21.

In the case of FPVRPQVPL, in assay [1] (source organism: Human immunodeficiency virus 1), the pIC50 was 7.80. In assay [2], the pKd (in general, the negative decadic logarithm of the Kd, by convention in mol/L) is no more than 4.46.

For KSYEHQTPF, the pKd in assay [3] was 6.08; in [4] (source organism: SARS-CoV1), 5.24; in assay [5] it was 6.73; in assay [6], 6.77; in assay [7] it was 4.84; in assay [8] it was no more than 4.70. In addition, the pKd in [9] was 7.03; in [10] it was 7.85; in [11], 5.36; in assay [12], no more than 4.04; in [13], no more than 4.57; in [14], 7.96. For the same sequence, the pKd in [15] was 7.46; in assay [16] (source organism: SARS-CoV1), 7.05; in assay [17] it was 7.06; in [18] (source organism: SARS-CoV1), 7.33.

Take LPSSSSYSY: the pKd was no more than 4.70 in [19]; 4.85 in assay [4] (source organism: Orthohantavirus andesense); no more than 4.70 in [20]; no more than 4.70 in [21]; no more than 4.70 in assay [22]; no more than 4.70 in [23]. Besides, the pKd in [24], in assay [25], in assay [26], in assay [16] (source organism: Choclo virus), in [27] and in assay [28] was no more than 4.70 each time. Also, the pKd was no more than 5.30 in assay [29] (source organism: Choclo virus); no more than 4.70 in [30]; no more than 4.70 in [31]; no more than 4.70 in [32]; 6.13 in assay [33] (source organism: Choclo virus); no more than 4.70 in [34]. The pKd in assay [35] (source organism: Choclo virus) is 5.79; in [36], no less than 10.00; in [37], no more than 4.70; in [38] (source organism: Choclo virus), no more than 5.30; in [39], no more than 4.70; in [18] (source organism: Choclo virus) it was no more than 4.70. In [40], this sequence showed a pKd of no more than 4.70.

With MPMKGRFPI, the pKd in assay [41] is no more than 4.70; in assay [42], no more than 4.70; in [43], 5.22; in [44] it was no more than 4.70; in assay [29] (source organism: Homo sapiens) it was no more than 5.30; in [33] (source organism: Homo sapiens), 7.16. Moreover, the pKd in assay [35] (source organism: Homo sapiens) was 6.57; in assay [38] (source organism: Homo sapiens), no more than 5.30; in assay [45], 6.53.

For the sequence NYARTEDFF, the pIC50 in assay [46] was 7.17.

In the case of TYSVSFDSLF, the pIC50 in assay [46] is 7.85.
